# Measurements reported in patent publication US20080093219A1.
# Molecular target: T4 tail-fiber protein P37 SΔ1ras2 (gene 37 SΔ1 deletion with the H-ras mAb epitope inserted at the junction), on SΔ1ras2 phage (bacteriophage T4; bacteriophage T4 with human H-ras insert) (UniProt P03744)
# Assay: cell-based or functional assay
substance,measurement,value
rat monoclonal IgG antibody Y13-259,phage inactivated after mAb and anti-rat IgG serum,85%
same,"phage inactivated, control treatment (mAb with buffer only)",99.8%
same,"phage inactivation, time course of mAb treatment",99.9%
